Reference: article doi:10.1101/791277

Tests used:
p85α nSH2, 325-430 = p85α nSH2, 325-430 (UniProt P27986); experiment: fluorescence polarization titration; settings: reference: unphosphorylated p85β peptide; sites Y599
p85β nSH2, 312-425 = p85β nSH2, 312-425 (UniProt O08908); experiment: fluorescence polarization titration; settings: reference: unphosphorylated p85β peptide; sites Y599
p85β nSH2, 312-425, sequence (O08908 whole entry, looked up, tested part not stated): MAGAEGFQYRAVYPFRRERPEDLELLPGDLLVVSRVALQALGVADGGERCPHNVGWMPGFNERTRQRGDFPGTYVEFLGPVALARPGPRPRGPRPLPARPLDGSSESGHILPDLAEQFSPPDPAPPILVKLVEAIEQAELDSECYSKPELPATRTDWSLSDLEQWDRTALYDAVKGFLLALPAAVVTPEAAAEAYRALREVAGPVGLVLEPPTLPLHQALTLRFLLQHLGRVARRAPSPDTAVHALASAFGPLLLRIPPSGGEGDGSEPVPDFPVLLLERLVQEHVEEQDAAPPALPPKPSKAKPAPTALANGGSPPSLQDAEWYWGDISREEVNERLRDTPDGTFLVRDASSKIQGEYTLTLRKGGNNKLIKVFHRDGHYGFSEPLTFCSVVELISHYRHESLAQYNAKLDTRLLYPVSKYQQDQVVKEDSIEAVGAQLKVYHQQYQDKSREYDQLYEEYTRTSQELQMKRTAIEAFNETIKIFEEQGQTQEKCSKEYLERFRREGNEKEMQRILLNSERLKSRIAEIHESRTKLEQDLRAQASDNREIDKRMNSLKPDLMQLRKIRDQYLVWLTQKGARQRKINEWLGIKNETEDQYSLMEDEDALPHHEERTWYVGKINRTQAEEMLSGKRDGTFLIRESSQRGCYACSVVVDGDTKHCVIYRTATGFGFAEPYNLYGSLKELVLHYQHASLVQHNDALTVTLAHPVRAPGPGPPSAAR

p85β, sequence (O08908 312-425, stated change not applied): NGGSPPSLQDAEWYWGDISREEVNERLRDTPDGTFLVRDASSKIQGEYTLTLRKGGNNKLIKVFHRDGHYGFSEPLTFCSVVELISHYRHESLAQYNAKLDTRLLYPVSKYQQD
p85α nSH2, 325-430, sequence (P27986 whole entry, looked up, tested part not stated): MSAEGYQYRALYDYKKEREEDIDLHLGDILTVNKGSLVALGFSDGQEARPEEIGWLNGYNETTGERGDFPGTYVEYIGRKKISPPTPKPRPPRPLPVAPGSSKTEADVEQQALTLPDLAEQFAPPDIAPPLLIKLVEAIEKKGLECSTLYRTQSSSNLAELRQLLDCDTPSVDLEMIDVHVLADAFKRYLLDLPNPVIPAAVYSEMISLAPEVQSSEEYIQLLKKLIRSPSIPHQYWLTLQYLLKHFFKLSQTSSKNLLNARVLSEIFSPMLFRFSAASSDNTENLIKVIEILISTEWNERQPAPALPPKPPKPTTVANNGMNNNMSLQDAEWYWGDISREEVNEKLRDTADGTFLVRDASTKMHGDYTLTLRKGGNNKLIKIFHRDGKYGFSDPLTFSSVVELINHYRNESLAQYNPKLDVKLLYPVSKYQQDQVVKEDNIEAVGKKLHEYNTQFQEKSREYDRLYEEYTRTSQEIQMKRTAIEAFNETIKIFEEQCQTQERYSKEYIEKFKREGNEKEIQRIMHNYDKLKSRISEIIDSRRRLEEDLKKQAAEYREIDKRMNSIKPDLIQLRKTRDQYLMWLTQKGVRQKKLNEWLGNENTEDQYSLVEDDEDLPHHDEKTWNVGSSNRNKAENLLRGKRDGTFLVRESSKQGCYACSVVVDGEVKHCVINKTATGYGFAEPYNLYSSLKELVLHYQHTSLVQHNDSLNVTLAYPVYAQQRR

p85β (from UniProt O08908) phospho-p85β peptide
binding against the reference (p85α nSH2, 325-430): gained | binding against the reference (p85β nSH2, 312-425): gained
